Reference: paper PMC5445624

Legend:
[1] = biological target: MBP-RNF4(WT) (UniProt O88846); assay: GST pulldown; conditions: for ratio to parent: parent: est. 1.0, read off a plot
[2] = biological target: GST-ETV4(1-335)(WT) SUMOylated with wild-type SUMO3, P28322;P55854; assay: GST pulldown; conditions: printed grade '++' (legend: ≥50% of RNF4(WT)); parent: +++ (≥80%)

GST-ETV4(1-480)(WT) modified with SUMO3(K11R) (from UniProt P28322;P55854) K96R; K222R; K256R; K328R
response (% bound relative to input) ([1]; ETV4 co-expressed in bacteria with SUMO3(K11R), lane 5, parent: 49): 3
ratio to parent ([1]; ETV4 co-expressed with SUMO3(K11R)): 0.05

GST-ETV4(1-480)(WT) modified with SUMO3(WT) (from UniProt P28322;P55854) K96R; K222R; K256R; K328R
response (% bound relative to input) ([1]; ETV4 co-expressed in bacteria with SUMO3(WT), lane 1, parent: 60): 12
ratio to parent ([1]; ETV4 co-expressed with SUMO3(WT)): 0.03

MBP-RNF4(WT) (from UniProt O88846) SIM1,2mut
percent of parent (% of RNF4(WT)) [2]: 50
